Data taken from patent US20230398217A1 (published 2023).
Changes are numbered by the printed parent chain.

T1: HA-1 (HMHA1, also known as ARHGAP45; R139H polymorphism, genotype RS_1801284 A/G or A/A) peptide on … (human)
T1 peptide: VLHDDLLEA

T2: CCDC114 peptide on HLA-A*02:01 (human)
T2 peptide: SMIDDLLGV

B1: HA1-1-12 (TCR, V domains shown)
Valpha: EDQVTQSPEALRLQEGESSSLNCSYTVSGLRGLFWYRQDPGKGPEFLFTLYSAGEEKEKERLKATLTKKESFLHITAPKPEDSATYLCAVHLNAGGTSYGKLTFGQGTILTVHP
Vbeta: DAGVTQSPTHLIKTRGQHVTLRCSPISGHKSVSWYQQVLGQGPQFIFQYYEKEERGRGNFPDRFSARQFPNYSSELNVNALLLGDSALYLCASSFDRGTNGYTFGSGTRLTVV
B2: HA1-10-34 (TCR, V domains shown)
Valpha: GENVEQHPSTLSVQEGDSAVIKCTYSDSASNYFPWYKQELGKRPQLIIDIRSNVGEKKDQRIAVTLNKTAKHFSLHITETQPEDSAVYFCAARGPGTYKYIFGTGTRLKVLA
Vbeta: DTGVSQDPRHKITKRGQNVTFRCDPISEHNRLYWYRQTLGQGPEFLTYFQNEAQLEKSRLLSDRFSAERPKGSFSTLEIQRTEQGDSAMYLCASVAGTVYNEQFFGPGTRLTVL
B3: HA1-6-2 (TCR, V domains shown)
Valpha: AQTVTQSQPEMSVQEAETVTLSCTYDTSESNYYLFWYKQPPSRQMILVIRQEAYKQQNATENRFSVNFQKAAKSFSLKISDSQLGDTAMYFCALYSGAGSYQLTFGKGTKLSVIP
Vbeta: B2 Vbeta with V95F, A96E, G97L, T98A, V99G, Y100G, N101Y
B4: HA1-TSC-100 (TCR, V domains shown)
Valpha: KQEVTQIPAALSVPEGENLVLNCSFTDSAIYNLQWFRQDPGKGLTSLLLIQSSQREQTSGRLNASLDKSSGRSTLYIAASQPGDSATYLCAVRGGTSGTYKYIFGTGTRLKVLA
Vbeta: DTGVSQDPRHKITKRGQNVTFRCDPISEHNRLYWYRQTLGQGPEFLTYFQNEAQLEKSRLLSDRFSAERPKGSFSTLEIQRTEQGDSAMYLCASSRTAGDTQYFGPGTRLTVL
B5: HA1-2-23 (TCR, V domains shown)
Valpha: B4 Valpha with G94P, G95T
Vbeta: B4 Vbeta with S95I, R96L, T97V, A98G, D100T, T101E, Q102A, Y103F, P106Q, L113V
B6: HA1-10-26 (TCR, V domains shown)
Valpha: GENVEQHPSTLSVQEGDSAVIKCTYSDSASNYFPWYKQELGKRPQLIIDIRSNVGEKKDQRIAVTLNKTAKHFSLHITETQPEDSAVYFCAASGLGSGAGSYQLTFGKGTKLSVIP
Vbeta: B4 Vbeta with R96L, T97L, D100E, T101K, Q102L, Y103F, P106S, R109Q, T111S
B7: HA1-9-105 (TCR, V domains shown)
Valpha: GENVEQHPSTLSVQEGDSAVIKCTYSDSASNYFPWYKQELGKRPQLIIDIRSNVGEKKDQRIAVTLNKTAKHFSLHITETQPEDSAVYFCAVGQNFVFGPGTRLSVLP
Vbeta: B4 Vbeta with R96P, A98T, G99I, D100N, T101E, Q102A, Y103F, P106Q, L113V
B8: HA1-2-21 (TCR, V domains shown)
Valpha: GQQVMQIPQYQHVQEGEDFTTYCNSSTTLSNIQWYKQRPGGHPVFLIQLVKSGEVKKQKRLTFQFGEAKKNSSLHITATQTTDVGTYFCAGPSGNTPLVFGKGTRLSVIA
Vbeta: B4 Vbeta with R96L, T97L, A98T, G99T, D100N, T101E, Y103F
B9: HA1-9-46 (TCR, V domains shown)
Valpha: GENVEQHPSTLSVQEGDSAVIKCTYSDSASNYFPWYKQELGKRPQLIIDIRSNVGEKKDQRIAVTLNKTAKHFSLHITETQPEDSAVYFCAASIMRFGAGTRLTVKP
Vbeta: B4 Vbeta with D7N, R96L, T97S, A98V, G99V, T101E, Y103F
B10: HA1-10-93 (TCR, V domains shown)
Valpha: B9 Valpha with A91P, A92I, S93R, I94Q, M95F, R96Y, A99T, R102S, K106I
Vbeta: B4 Vbeta with R96L, T97V, A98V, G99V
B11: HA1-10-104 (TCR, V domains shown)
Valpha: AQSVTQPDIHITVSEGASLELRCNYSYGATPYLFWYVQSPGQGLQLLLKYFSGDTLVQGIKGFEAEFKRSQSSFNLRKPSVHWSDAAEYFCAVANAGGTSYGKLTFGQGTILTVHP
Vbeta: NAGVTQTPKFRVLKTGQSMTLLCAQDMNHEYMYWYRQDPGMGLRLIHYSVGEGTTAKGEVPDGYNVSRLKKQNFLLGLESAAPSQTSVYFCASGRSGTKFFGPGTRLTVL
B12: HA1-Fred Hutch (TCR, V domains shown)
Valpha: KQEVTQIPAALSVPEGENLVLNCSFTDSAIYNLQWFRQDPGKGLTSLLLIQSSQREQTSGRLNASLDKSSGRSTLYIAASQPGDSATYLCAVIGLGGTYKYIFGTGTRLKVLA
Vbeta: B4 Vbeta with R96L, T97V, A98K, D100E, T101K, Q102L, Y103F, P106S, R109Q, T111S

Biological target: T1, HA-1 (HMHA1, also known as ARHGAP45; …)
Experiment: multimer staining

binding result | Binder
recognises | B1
recognises | B2
recognises | B3
recognises | B4
recognises | B5
recognises | B6
recognises | B7
recognises | B8
recognises | B9
recognises | B10
recognises | B11

Biological target: T2, CCDC114 peptide on HLA-A*02:01
Experiment: activation reporter or marker

binding result | Binder
no recognition | B4
recognises | B12

Biological target: T1, HA-1 (HMHA1, also known as ARHGAP45; …)
Experiment: killing

Binder | binding result
B12 | recognises
